In patent publication US20260139048A1 (NANJING LEGEND BIOTECH, published 2026):
Read-outs that look alike come from different tables or passages of the source.

Legend:
[1] = biological target: T1, human TIGIT expressed on CHO-K1 cells (human, UniProt Q495A1 22-244); assay: flow cytometry on CHO-K1 cells expressing human TIGIT
T1 construct: whole, on cells; also called human TIGIT-CHO-K1 cells; human TIGIT over-expressing cell line
T1 sequence (looked up): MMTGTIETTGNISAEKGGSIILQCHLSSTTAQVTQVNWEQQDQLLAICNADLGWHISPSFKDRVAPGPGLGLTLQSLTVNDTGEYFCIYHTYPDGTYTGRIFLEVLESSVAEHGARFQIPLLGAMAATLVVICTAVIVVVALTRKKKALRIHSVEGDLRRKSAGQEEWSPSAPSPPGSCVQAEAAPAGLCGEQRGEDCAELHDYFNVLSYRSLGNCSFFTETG

[2] = biological target: T2, His-tagged cynomolgus TIGIT (cynomolgus, UniProt A0A7N9I9V4 89-209); assay: SPR (Biacore T200), antibody captured, His-tagged TIGIT analyte
T2 construct: SPR analyte; also called cynomolgus TIGIT protein; not shown: His tag

His-tagged human TIGIT [3] = biological target: T3, His-tagged human TIGIT (human, UniProt Q495A1 22-141); assay: as above
T3 construct: SPR analyte; also called human TIGIT protein; not shown: His tag
T3 sequence: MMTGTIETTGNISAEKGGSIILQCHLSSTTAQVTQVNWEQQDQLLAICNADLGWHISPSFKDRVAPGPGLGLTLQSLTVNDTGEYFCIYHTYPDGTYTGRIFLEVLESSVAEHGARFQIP

[4] = biological target: T4, cynomolgus TIGIT expressed on CHO-K1 cells (cynomolgus, UniProt A0A7N9I9V4 89-312); assay: flow cytometry on CHO-K1 cells expressing cynomolgus TIGIT
T4 construct: whole, on cells; also called cynomolgus TIGIT over-expressing cell line

[5] = biological target: T1, human TIGIT expressed on CHO-K1 cells; assay: flow cytometry on CHO-K1 cells expressing human TIGIT; remark: listed apart in the source
His-tagged human TIGIT [6] = biological target: T3, His-tagged human TIGIT; assay: SPR experiment 4, IgG from HEK293 supernatant captured
[7] = biological target: T5, TIGIT on TIGIT-over expressing NFAT-Luc/Jurkat effector cells (GenScript reporter cell line) (UniProt Q495A1 22-244, limits assumed); assay: cell-based or functional assay
T5 sequence (looked up): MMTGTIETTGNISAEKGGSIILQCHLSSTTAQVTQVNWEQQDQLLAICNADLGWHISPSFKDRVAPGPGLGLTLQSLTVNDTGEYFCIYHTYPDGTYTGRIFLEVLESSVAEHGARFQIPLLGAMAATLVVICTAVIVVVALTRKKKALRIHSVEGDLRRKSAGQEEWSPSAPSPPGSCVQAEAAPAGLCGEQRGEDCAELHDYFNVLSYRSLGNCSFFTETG

[8] = biological target: T1, human TIGIT expressed on CHO-K1 cells; assay: flow cytometry competition: biotinylated CD155-Fc on human TIGIT-CHO-K1 cells
[9] = biological target: T2, His-tagged cynomolgus TIGIT; assay: SPR (Biacore T200), antibody captured, His-tagged TIGIT analyte; remark: listed apart in the source
His-tagged human TIGIT [10] = biological target: T3, His-tagged human TIGIT; assay: as above; remark: listed apart in the source
[11] = biological target: T1, human TIGIT expressed on CHO-K1 cells; assay: flow cytometry competition: biotinylated CD155-Fc on human TIGIT-CHO-K1 cells; remark: listed apart in the source
[12] = biological target: T4, cynomolgus TIGIT expressed on CHO-K1 …; assay: flow cytometry on CHO-K1 cells expressing cynomolgus TIGIT; remark: listed apart in the source
[13] = biological target: T5, TIGIT on TIGIT-over expressing …; assay: cell-based or functional assay; remark: listed apart in the source
His-tagged human TIGIT [14] = biological target: T3, His-tagged human TIGIT; assay: SPR experiment 1, IgG from HEK293 supernatant captured
His-tagged human TIGIT [15] = biological target: T3, His-tagged human TIGIT; assay: SPR experiment 2, IgG from HEK293 supernatant captured
His-tagged human TIGIT [16] = biological target: T3, His-tagged human TIGIT; assay: SPR experiment 3, IgG from HEK293 supernatant captured
His-tagged human TIGIT [17] = biological target: T3, His-tagged human TIGIT; assay: SPR experiment 3, IgG from HEK293 supernatant
His-tagged human TIGIT [18] = biological target: T3, His-tagged human TIGIT; assay: SPR experiment 2, IgG from HEK293 supernatant captured; remark: listed apart in the source
His-tagged human TIGIT [19] = biological target: T3, His-tagged human TIGIT; assay: SPR experiment 1, IgG from HEK293 supernatant captured; remark: listed apart in the source
His-tagged human TIGIT [20] = biological target: T3, His-tagged human TIGIT; assay: SPR, IgG from HEK293 supernatant; against 19VH + 19VL

T2 sequence (A0A7N9I9V4 entry or part of it): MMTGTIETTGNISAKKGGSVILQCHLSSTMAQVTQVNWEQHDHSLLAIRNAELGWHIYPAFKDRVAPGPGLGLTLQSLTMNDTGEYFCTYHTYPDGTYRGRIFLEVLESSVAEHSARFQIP
T4 sequence (A0A7N9I9V4 entry or part of it): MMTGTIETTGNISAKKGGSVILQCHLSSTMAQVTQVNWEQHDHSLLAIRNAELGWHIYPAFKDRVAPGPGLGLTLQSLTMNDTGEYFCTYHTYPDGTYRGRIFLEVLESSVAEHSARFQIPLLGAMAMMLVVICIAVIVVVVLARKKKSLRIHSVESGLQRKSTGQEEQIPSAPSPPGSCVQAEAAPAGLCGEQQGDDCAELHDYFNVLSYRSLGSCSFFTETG

B1: TIGIT-3 chimeric antibody (antibody, human IgG1, kappa, V domains shown)
VH: EVQLVESGGGLVQPGGSLKLSCAASGFTFSSYGMSWVRQTPDKRLELVATIKSDGGSTNLPDSVKGRFTISRDNAKNTLHLQMSSLKSEDTAMYYCVRGYFDYWGQGTSVTVSS
VL: DIVMTQSHKFMSTSVGDRVSITCKASQDVKTAVAWYQQKPGQSPKLLIYWSSTRHTGVPDRFTGSRSLTDHTLTISSVQAEDLALYYCQQYYSTPYTFGGGTKLELKR
notes: also called 3VH + 3VL
[1]
  EC50: 0.53 nM
[2]
  Kd: 0.45 nM
  koff: 5.3e-05 s⁻¹
  kon: 120000 M⁻¹ s⁻¹
His-tagged human TIGIT [3]
  Kd: 0.075 nM
  koff: 4.7e-05 s⁻¹
  kon: 630000 M⁻¹ s⁻¹
[4]
  EC50: 1.42 nM
[5]
  EC50: 0.346 nM
His-tagged human TIGIT [6]
  Kd: 0.28 nM
  koff: 0.00017 s⁻¹
  kon: 610000 M⁻¹ s⁻¹
[7]
  Bottom (RLU): 11200 RLU
  EC50: 2.77 nM
  Top (RLU): 42800 RLU
[8]
  IC50: 0.38 nM
[9]
  Kd: 1.8 nM
  koff: 0.0002 s⁻¹
  kon: 110000 M⁻¹ s⁻¹
His-tagged human TIGIT [10]
  Kd: 0.081 nM
  koff: 5.9e-05 s⁻¹
  kon: 730000 M⁻¹ s⁻¹
[11]
  IC50: 0.558 nM
[12]
  EC50: 2 nM
[13]
  Bottom (RLU): 55800 RLU
  EC50: 2.1 nM
  Top (RLU): 148000 RLU
His-tagged human TIGIT [14]
  Kd: 0.24 nM
  koff: 0.00012 s⁻¹
  kon: 510000 M⁻¹ s⁻¹

B2: huTIGIT-3-1 (antibody, human IgG1, kappa, V domains shown)
VH: EVQLVESGGGLVQPGGSLRLSCAASGFTFSSYGMSWVRQAPGKGLELVATIKSSGGSTNLADSVKGRFTISRDNSKNTLYLQMNSLRAEDTAVYYCVRGYFDYWGQGTTVTVSS
VL: DIQMTQSPSSLSASVGDRVTITCRASQDIKTALAWYQQKPGKSPKLLIYWASTRQSGVPSRFSGSGSGTDFTLTISSLQPEDVATYYCQQYYSTPYTFGGGTKVEIKR
notes: Humanized IgG; also called 3VH3.M4 + 3VL4.M6
[2]
  Kd: 18 nM
  koff: 0.0022 s⁻¹
  kon: 120000 M⁻¹ s⁻¹
His-tagged human TIGIT [3]
  Kd: 0.54 nM
  koff: 0.00031 s⁻¹
  kon: 570000 M⁻¹ s⁻¹
[4]
  EC50: 1.72 nM
[5]
  EC50: 0.511 nM
His-tagged human TIGIT [6]
  Kd: 0.56 nM
  koff: 0.00046 s⁻¹
  kon: 820000 M⁻¹ s⁻¹
[11]
  IC50: 0.502 nM
[13]
  Bottom (RLU): 54400 RLU
  EC50: 4.92 nM
  Top (RLU): 152000 RLU

B3: reshaped TIGIT-3 antibody 3VH3 + 3VL (antibody, V domains shown)
VH: EVQLVESGGGLVQPGGSLRLSCAASGFTFSSYGMSWVRQAPGKGLELVATIKSDGGSTNLPDSVKGRFTISRDNSKNTLYLQMNSLRAEDTAVYYCVRGYFDYWGQGTTVTVSS
VL: DIVMTQSHKFMSTSVGDRVSITCKASQDVKTAVAWYQQKPGQSPKLLIYWSSTRHTGVPDRFTGSRSLTDHTLTISSVQAEDLALYYCQQYYSTPYTFGGGTKLELK
notes: Full-length IgG, tested as HEK293 supernatant
His-tagged human TIGIT [15]
  Kd: 0.48 nM
  koff: 0.00025 s⁻¹
  kon: 520000 M⁻¹ s⁻¹
His-tagged human TIGIT [14]
  Kd: 0.25 nM
  koff: 0.00015 s⁻¹
  kon: 580000 M⁻¹ s⁻¹

B4: reshaped TIGIT-3 antibody 3VH3.M4 + 3VL (antibody, V domains shown)
VH: EVQLVESGGGLVQPGGSLRLSCAASGFTFSSYGMSWVRQAPGKGLELVATIKSSGGSTNLADSVKGRFTISRDNSKNTLYLQMNSLRAEDTAVYYCVRGYFDYWGQGTTVTVSS
VL: DIVMTQSHKFMSTSVGDRVSITCKASQDVKTAVAWYQQKPGQSPKLLIYWSSTRHTGVPDRFTGSRSLTDHTLTISSVQAEDLALYYCQQYYSTPYTFGGGTKLELK
notes: as for B3
His-tagged human TIGIT [15]
  Kd: 0.36 nM
  koff: 0.00016 s⁻¹
  kon: 450000 M⁻¹ s⁻¹

B5: reshaped TIGIT-3 antibody 3VH3 + 3VL1 (antibody, V domains shown)
VH: EVQLVESGGGLVQPGGSLRLSCAASGFTFSSYGMSWVRQAPGKGLELVATIKSDGGSTNLPDSVKGRFTISRDNSKNTLYLQMNSLRAEDTAVYYCVRGYFDYWGQGTTVTVSS
VL: DIQMTQSPSSLSASVGDRVTITCKASQDVKTAVAWYQQKPGKVPKLLIYWSSTRHTGVPSRFSGSGSGTDFTLTISSLQPEDVATYYCQQYYSTPYTFGGGTKVEIK
notes: as for B3
His-tagged human TIGIT [16]
  Kd: 36 nM
  koff: 0.0076 s⁻¹
  kon: 210000 M⁻¹ s⁻¹
His-tagged human TIGIT [17]
  fold affinity decrease: ~100 fold

B6: TIGIT-19 chimeric antibody (antibody, human IgG1, kappa, V domains shown)
VH: QVQLQQPGPELVKPGTSVMLSCKASGYAFSRYSMYWVKQSHGKSLEWIAFIDPYNGGSTYNQRFRGKATLTVDKSSSTAYMHLNTLTSDDSAVYYCARGGDYGWYLGVWGAGTTVTVSS
VL: DIQMTQSPASLSASVGETVTITCRPSENIYTYLSWYQQKRGKSPQLLVYNAKTLPENVPSRFSGSGSGTQFSLKIDSLQPEDFGNYYCQHHYGNPLTFGAGTKLELKR
notes: also called 19VH + 19VL
[1]
  EC50: 0.41 nM
[2]
  Kd: 0.032 nM
  koff: 3.2e-05 s⁻¹
  kon: 1e+06 M⁻¹ s⁻¹
His-tagged human TIGIT [3]
  Kd: 0.04 nM
  koff: 5.9e-05 s⁻¹
  kon: 1.5e+06 M⁻¹ s⁻¹
[4]
  EC50: 0.524 nM
His-tagged human TIGIT [18]
  Kd: 0.12 nM
  koff: 0.00015 s⁻¹
  kon: 1.2e+06 M⁻¹ s⁻¹
[5]
  EC50: 0.311 nM
[7]
  Bottom (RLU): 11100 RLU
  EC50: 3.28 nM
  Top (RLU): 41600 RLU
His-tagged human TIGIT [19]
  Kd: 0.071 nM
  koff: 9.7e-05 s⁻¹
  kon: 1.4e+06 M⁻¹ s⁻¹
[8]
  IC50: 0.4 nM
[9]
  Kd: 0.091 nM
  koff: 6.6e-05 s⁻¹
  kon: 730000 M⁻¹ s⁻¹
His-tagged human TIGIT [10]
  Kd: 0.071 nM
  koff: 0.0001 s⁻¹
  kon: 1.5e+06 M⁻¹ s⁻¹
[11]
  IC50: 0.26 nM
[12]
  EC50: 1.05 nM
[13]
  Bottom (RLU): 47600 RLU
  EC50: 2.75 nM
  Top (RLU): 130000 RLU

B7: humanized TIGIT-19 antibody 19VH4 + 19VL1 (antibody, V domains shown)
VH: QVQLVQSGAEVKKPGASVKVSCKASGYAFSRYSMYWVRQAPGQGLEWIAFIDPYNGGSTYNQRFRGKATLTVDTSISTAYMELSRLRSDDTAVYYCARGGDYGWYLGVWGQGTLVTVSS
VL: DIQMTQSPSSLSASVGDRVTITCRPSENIYTYLSWYQQKPGKAPKLLIYNAKTLPEGVPSRFSGSGSGTDFTLTISSLQPEDFATYYCQHHYGNPLTFGQGTKVEIK
notes: as for B3
His-tagged human TIGIT [18]
  Kd: 0.028 nM
  koff: 3.3e-05 s⁻¹
  kon: 1.2e+06 M⁻¹ s⁻¹
His-tagged human TIGIT [20]
  fold improvement of binding affinity: ~4 fold
His-tagged human TIGIT [19]
  Kd: 0.0196 nM
  koff: 2.51e-05 s⁻¹
  kon: 1.28e+06 M⁻¹ s⁻¹
